Measurements: US20250018014A1, “METHOD FOR TREATING AND/OR PREVENTING REGNASE-1-RELATED DISEASE” (OSAKA UNIVERSITY, priority 2018, published 2025)

T1: FLAG-tagged Regnase-1 AA mutant (S435A/S439A), purified from or expressed in Regnase-1-deficient MEFs
T1 chain: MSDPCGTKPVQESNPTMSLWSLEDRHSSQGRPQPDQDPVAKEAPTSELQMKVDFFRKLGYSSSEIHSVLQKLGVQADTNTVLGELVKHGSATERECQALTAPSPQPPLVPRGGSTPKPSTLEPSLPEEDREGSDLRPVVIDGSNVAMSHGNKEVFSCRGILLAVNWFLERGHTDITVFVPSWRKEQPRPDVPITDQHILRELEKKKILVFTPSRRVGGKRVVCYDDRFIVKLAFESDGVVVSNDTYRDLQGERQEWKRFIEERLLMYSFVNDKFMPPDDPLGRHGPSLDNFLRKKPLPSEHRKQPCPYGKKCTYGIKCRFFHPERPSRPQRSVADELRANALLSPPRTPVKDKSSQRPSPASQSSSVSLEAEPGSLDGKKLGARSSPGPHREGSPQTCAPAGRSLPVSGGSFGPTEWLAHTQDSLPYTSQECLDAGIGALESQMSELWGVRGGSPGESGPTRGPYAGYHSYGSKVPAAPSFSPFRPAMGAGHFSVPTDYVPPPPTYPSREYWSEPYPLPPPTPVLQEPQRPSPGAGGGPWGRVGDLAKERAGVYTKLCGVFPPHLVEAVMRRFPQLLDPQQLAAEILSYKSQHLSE

T2: biotinylated human Regnase-1 (full length, C-terminal BirA recognition sequence, GST tag cleaved)
T2 chain: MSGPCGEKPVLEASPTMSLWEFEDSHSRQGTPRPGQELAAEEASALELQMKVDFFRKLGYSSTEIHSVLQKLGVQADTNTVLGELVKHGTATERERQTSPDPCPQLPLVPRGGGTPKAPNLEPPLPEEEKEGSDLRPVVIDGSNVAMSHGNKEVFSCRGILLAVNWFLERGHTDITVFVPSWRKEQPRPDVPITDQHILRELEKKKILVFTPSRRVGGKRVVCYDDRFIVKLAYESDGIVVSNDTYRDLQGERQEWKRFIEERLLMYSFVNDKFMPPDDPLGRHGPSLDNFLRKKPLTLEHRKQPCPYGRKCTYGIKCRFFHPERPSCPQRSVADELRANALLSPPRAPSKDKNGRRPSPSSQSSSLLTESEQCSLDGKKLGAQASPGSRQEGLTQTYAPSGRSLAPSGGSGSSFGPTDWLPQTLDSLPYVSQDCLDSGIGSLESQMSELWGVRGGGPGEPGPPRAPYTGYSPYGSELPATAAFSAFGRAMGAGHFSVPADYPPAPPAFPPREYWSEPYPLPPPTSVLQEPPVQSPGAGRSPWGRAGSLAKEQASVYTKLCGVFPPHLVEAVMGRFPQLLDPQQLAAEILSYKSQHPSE


How the values were obtained:
[1] = target: T1, FLAG-tagged Regnase-1 AA mutant …
[2] = target: T2, biotinylated human Regnase-1 (full …)

| Protein | in vitro phosphorylation (mobility shift by immunoblotting, 32P autoradiography) [1] | in vitro phosphorylation reaction, western blotting with anti-phosphorylated Regnase-1 antibody [2] |
| --- | --- | --- |
| GST-tagged TBK1 (Sigma) (protein) MQSTSNHLWLLSDILGQGATANVFRGRHKKTGDLFAIKVFNNISFLRPVDVQMREFEVLKKLNHKNIVKLFAIEEETTTRHKVLIMEFCPCGSLYTVLEEPSNAYGLPESEFLIVLRDVVGGMNHLRENGIVHRDIKPGNIMRVIGEDGQSVYKLTDFGAARELEDDEQFVSLYGTEEYLHPDMYERAVLRKDHQKKYGATVDLWSIGVTFYHAATGSLPFRPFEGPRRNKEVMYKIITGKPSGAISGVQKAENGPIDWSGDMPVSCSLSRGLQVLLTPVLANILEADQEKCWGFDQFFAETSDILHRMVIHVFSLQQMTAHKIYIHSYNTATIFHELVYKQTKIISSNQELIYEGRRLVLEPGRLAQHFPKTTEENPIFVVSREPLNTIGLIYEKISLPKVHPRYDLDGDASMAKAITGVVCYACRIASTLLLYQELMRKGIRWLIELIKDDYNETVHKKTEVVITLDFCIRNIEKTVKVYEKLMKINLEAAELGEISDIHTKLLRLSSSQGTIETSLQDIDSRLSPGGSLADAWAHQEGTHPKDRNVEKLQVLLNCMTEIYYQFKKDKAERRLAYNEEQIHKFDKQKLYYHATKAMTHFTDECVKKYEAFLNKSEEWIRKMLHLRKQLLSLTNQCFDIEEEVSKYQEYTNELQETLPQKMFTASSGIKHTMTPIYPSSNTLVEMTLGMKKLKEEMEGVVKELAENNHILERFGSLTMDGGLRNVDCL | Phosphorylation of recombinant Regnase-1 by recombinant TBK1 and/or IKKi under in vitro conditions was detected |  |
| GST-tagged IKKi (Thermo Fisher Scientific) (protein) MQSTANYLWHTDDLLGQGATASVYKARNKKSGELVAVKVFNTTSYLRPREVQVREFEVLRKLNHQNIVKLFAVEETGGSRQKVLVMEYCSSGSLLSVLESPENAFGLPEDEFLVVLRCVVAGMNHLRENGIVHRDIKPGNIMRLVGEEGQSIYKLTDFGAARELDDDEKFVSVYGTEEYLHPDMYERAVLRKPQQKAFGVTVDLWSIGVTLYHAATGSLPFIPFGGPRRNKEIMYRITTEKPAGAIAGAQRRENGPLEWSYTLPITCQLSLGLQSQLVPILANILEVEQAKCWGFDQFFAETSDILQRVVVHVFSLSQAVLHHIYIHAHNTIAIFQEAVHKQTSVAPRHQEYLFEGHLCVLEPSVSAQHIAHTTASSPLTLFSTAIPKGLAFRDPALDVPKFVPKVDLQADYNTAKGVLGAGYQALRLARALLDGQELMFRGLHWVMEVLQATCRRTLEVARTSLLYLSSSLGTERFSSVAGTPEIQELKAAAELRSRLRTLAEVLSRCSQNITETQESLSSLNRELVKSRDQVHEDRSIQQIQCCLDKMNFIYKQFKKSRMRPGLGYNEEQIHKLDKVNFSHLAKRLLQVFQEECVQKYQASLVTHGKRMRVVHETRNHLRLVGCSVAACNTEAQGVQESLSKLLEELSHQLLQDRAKGAQASPPPIAPYPSPTRKDLLLHMQELCEGMKLLASDLLDNNRIIERLNRVPAPPDV | Phosphorylation of recombinant Regnase-1 by recombinant TBK1 and/or IKKi under in vitro conditions was detected |  |
| IKKβ (manufactured by SignalChem) (protein) MSWSPSLTTQTCGAWEMKERLGTGGFGNVIRWHNQETGEQIAIKQCRQELSPRNRERWCLEIQIMRRLTHPNVVAARDVPEGMQNLAPNDLPLLAMEYCQGGDLRKYLNQFENCCGLREGAILTLLSDIASALRYLHENRIIHRDLKPENIVLQQGEQRLIHKIIDLGYAKELDQGSLCTSFVGTLQYLAPELLEQQKYTVTVDYWSFGTLAFECITGFRPFLPNWQPVQWHSKVRQKSEVDIVVSEDLNGTVKFSSSLPYPNNLNSVLAERLEKWLQLMLMWHPRQRGTDPTYGPNGCFKALDDILNLKLVHILNMVTGTIHTYPVTEDESLQSLKARIQQDTGIPEEDQELLQEAGLALIPDKPATQCISDGKLNEGHTLDMDLVFLFDNSKITYETQISPRPQPESVSCILQEPKRNLAFFQLRKVWGQVWHSIQTLKEDCNRLQQGQRAAMMNLLRNNSCLSKMKNSMASMSQQLKAKLDFFKTSIQIDLEKYSEQTEFGITSDKLLLAWREMEQAVELCGRENEVKLLVERMMALQTDIVDLQRSPMGRKQGGTLDDLEEQARELYRRLREKPRDQRTEGDSQEMVRLLLQAIQSFEKKVRVIYTQLSKTVVCKQKALELLPKVEEVVSLMNEDEKTVVRLQEKRQKELWNLLKIACSKVRGPVSGSPDSMNASRLSQPGQLMSQPSTASNSLPEPAKKSEELVAEAHNLCTLLENAIQDTVREQDQSFTALDWSWLQTEEEEHSCLEQAS |  | it was confirmed that human Regnase-1 is phosphorylated by IKKβ and TBK1 |
| TBK1 (manufactured by SignalChem) (protein) MQSTSNHLWLLSDILGQGATANVFRGRHKKTGDLFAIKVFNNISFLRPVDVQMREFEVLKKLNHKNIVKLFAIEEETTTRHKVLIMEFCPCGSLYTVLEEPSNAYGLPESEFLIVLRDVVGGMNHLRENGIVHRDIKPGNIMRVIGEDGQSVYKLTDFGAARELEDDEQFVSLYGTEEYLHPDMYERAVLRKDHQKKYGATVDLWSIGVTFYHAATGSLPFRPFEGPRRNKEVMYKIITGKPSGAISGVQKAENGPIDWSGDMPVSCSLSRGLQVLLTPVLANILEADQEKCWGFDQFFAETSDILHRMVIHVFSLQQMTAHKIYIHSYNTATIFHELVYKQTKIISSNQELIYEGRRLVLEPGRLAQHFPKTTEENPIFVVSREPLNTIGLIYEKISLPKVHPRYDLDGDASMAKAITGVVCYACRIASTLLLYQELMRKGIRWLIELIKDDYNETVHKKTEVVITLDFCIRNIEKTVKVYEKLMKINLEAAELGEISDIHTKLLRLSSSQGTIETSLQDIDSRLSPGGSLADAWAHQEGTHPKDRNVEKLQVLLNCMTEIYYQFKKDKAERRLAYNEEQIHKFDKQKLYYHATKAMTHFTDECVKKYEAFLNKSEEWIRKMLHLRKQLLSLTNQCFDIEEEVSKYQEYTNELQETLPQKMFTASSGIKHTMTPIYPSSNTLVEMTLGMKKLKEEMEGVVKELAENNHILERFGSLTMDGGLRNVDCL |  | it was confirmed that human Regnase-1 is phosphorylated by IKKβ and TBK1 |
